{
  "source": "paper PMC12102759",
  "about": "(Protein Science : A Publication of the Protein Society, 2025)",
  "settings_in_all_cases": "both partners purified",
  "key": {"[1]": {"molecular_target": "T1, talin‐1 PTB domain (309–401), tag cleaved, for FP (human, UniProt Q9Y490 309-401)", "T1 construct": "also called TLN1 PTB; source: E. coli BL21 (DE3), purified (Ni Sepharose, HRV 3C cleavage)", "T1 sequence (Q9Y490 309-401)": "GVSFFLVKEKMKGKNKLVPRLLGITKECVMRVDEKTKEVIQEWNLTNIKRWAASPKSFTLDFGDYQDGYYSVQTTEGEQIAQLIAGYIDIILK", "test": "fluorescence polarisation; human domains; saturation with FITC-labelled probe peptide or displacement by unlabelled peptide; 50 mM KPO4 pH 7.5, DTT; triplicates; the text does not tell which of the two gave each KD"}, "[2]": {"molecular_target": "SARS-CoV-2 NSP3 UBl1 domain (SARS-CoV-2, UniProt P0DTD1 819-925)", "test": "fluorescence polarisation"}, "[3]": {"molecular_target": "SARS-CoV-2 non-structural protein 9 (NSP9) (SARS-CoV-2, UniProt P0DTD1 4141-4253)", "test": "fluorescence polarisation"}, "[4]": {"molecular_target": "SARS-CoV-2 NSP3 SUD-M domain (SARS-CoV-2, UniProt P0DTD1 1356-1493)", "test": "fluorescence polarisation"}, "[5]": {"molecular_target": "SARS-CoV-2 NSP3 ADRP domain (SARS-CoV-2, UniProt P0DTD1 1023-1192)", "test": "fluorescence polarisation"}, "[6]": {"molecular_target": "talin-1 phosphotyrosine binding (TLN1 PTB) domain (human, UniProt Q9Y490 309-401)", "test": "fluorescence polarisation; saturation (direct binding): human bait protein in serial dilution added to 10 nM-master-mix FITC-labeled probe peptide; 50 mM KPO4 pH 7.5, DTT; triplicates; fit to a quadratic equation"}, "[7]": {"molecular_target": "T2, talin-1 phosphotyrosine binding (TLN1 PTB) domain (human, UniProt Q9Y490 309-401)", "T2 construct": "source: E. coli BL21 (DE3), purified (Ni Sepharose, tag cleaved with HRV 3C protease)", "test": "fluorescence polarisation; displacement: unlabelled peptide in serial dilution added to FITC-labelled probe peptide with the protein at 4x the KD value; 50 mM KPO4 pH 7.5; triplicates; sigmoidal dose-response fit"}, "[8]": {"molecular_target": "G3BP1 NTF2-like domain (1–139), tag cleaved, for FP (human, UniProt Q13283 1-139)", "sequence (Q13283 1-139)": "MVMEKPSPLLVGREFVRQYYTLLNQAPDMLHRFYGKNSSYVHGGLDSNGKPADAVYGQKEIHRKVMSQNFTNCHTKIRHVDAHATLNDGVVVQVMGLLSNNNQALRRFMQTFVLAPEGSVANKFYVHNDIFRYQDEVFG", "test": "fluorescence polarisation"}},
  "note": "No end group written: not given here. *: point of attachment. FITC = O=C1OC2(c3ccc(O)cc3Oc3cc(O)ccc32)c2ccc(NC(=S)*)cc21",
  "data": [
    {"binder": "LADLIFTDSKLYIPLE (source: synthetic peptide (GeneCust))", "note": "[wild‐type TPTE2_(92‐107) peptide]", "values": [
      {"measurement": "Kd", "setting": "[1]", "value": 4.5, "unit": "µM"}
    ]},
    {"binder": "LADLIWTDSKLYIPLE (source: synthetic peptide (GeneCust))", "note": "[TPTE2_(92‐107) F97W peptide]", "values": [
      {"measurement": "Kd", "setting": "[1]", "value": 0.1, "unit": "µM"}
    ]},
    {"binder": "LADLIFTDNKLYIPLE (source: synthetic peptide (GeneCust))", "note": "[TPTE2_(92‐107) S100N peptide]", "values": [
      {"measurement": "Kd", "setting": "[1]", "value": 1.7, "unit": "µM"}
    ]},
    {"binder": "LADLIYTDSKLYIPLE (source: synthetic peptide (GeneCust))", "note": "[TPTE2_(92‐107) F97Y peptide]", "values": [
      {"measurement": "Kd", "setting": "[1]", "value": 150, "unit": "µM"}
    ]},
    {"binder": "LADLIFTDSKLYAPLE (source: synthetic peptide (GeneCust))", "note": "[TPTE2 I104A peptide]", "values": [
      {"measurement": "Kd", "setting": "[1]", "value": 18, "unit": "µM"}
    ]},
    {"binder": "LADLIFTDSKLYLPLE (source: synthetic peptide (GeneCust))", "note": "[TPTE2 I104L peptide]", "values": [
      {"measurement": "binding result", "setting": "[1]", "value": "binds"}
    ]},
    {"binder": "LADLIFTDSKLWIPLE (source: synthetic peptide (GeneCust))", "note": "[TPTE2 Y103W peptide]", "values": [
      {"measurement": "Kd", "setting": "[1]", "value": 22, "unit": "µM"}
    ]},
    {"binder": "PSDEGALLDQLYLALR", "note": "[NCOA2 wt peptide 1073-1088]", "values": [
      {"measurement": "IC50", "setting": "[2]", "value": 139, "unit": "µM"}
    ]},
    {"binder": "QGAWLGAPEPWEPLLD", "note": "[NOTCH4 wt peptide 1606-1621]", "values": [
      {"measurement": "IC50", "setting": "[3]", "value": 205, "unit": "µM"}
    ]},
    {"binder": "FTEEDLHFVLYGVTPS (FITC on the N-terminus)", "note": "[FITC-labelled PRDM14 peptide 197-212]", "values": [
      {"measurement": "Kd", "setting": "[4]", "value": 19, "unit": "µM"}
    ]},
    {"binder": "GSTYLHPLSELLGIPL (FITC on the N-terminus)", "note": "[FITC-labelled MBOAT1 peptide 16-31]", "values": [
      {"measurement": "Kd", "setting": "[5]", "value": 50.8, "unit": "µM"}
    ]},
    {"binder": "{FITC}-FPTDERSWVYSPLHYS (source: synthetic peptide (GeneCust))", "note": "[FITC-labeled PIP5K1C probe peptide FITC-FPTDERSWVYSPLHYS]", "values": [
      {"measurement": "Kd", "setting": "[6]", "value": 0.065, "unit": "µM"}
    ]},
    {"binder": "QFTEEDLHFVLYGVTPY", "note": "[PRDM14 wt peptide 196-211]", "values": [
      {"measurement": "IC50", "setting": "[4]", "value": 400, "unit": "µM"}
    ]},
    {"binder": "SDEGALLDQLYLALRN (FITC on the N-terminus)", "note": "[FITC-labelled NCOA2 peptide 1074-1089]", "values": [
      {"measurement": "Kd", "setting": "[2]", "value": 67, "unit": "µM"}
    ]},
    {"binder": "AEGIDIGEMPSYDLVL (FITC on the N-terminus, NKRF residues 8-23)", "note": "[FITC-labelled NKRF peptide 8-23]", "values": [
      {"measurement": "Kd", "setting": "[3]", "value": 15.5, "unit": "µM"}
    ]},
    {"binder": "Ac-LADLIFTDSKLYIPLE-NH2", "note": "[TPTE2 wt peptide 92-107]", "values": [
      {"measurement": "IC50", "setting": "[7]", "value": 15, "unit": "µM"}
    ]},
    {"binder": "Ac-LADLIFTDSKLYLPLE-NH2", "note": "[TPTE2_I104L peptide 92-107]", "values": [
      {"measurement": "IC50", "setting": "[7]", "value": 14, "unit": "µM"},
      {"measurement": "Kd", "setting": "[7]", "value": 4.5, "unit": "µM"}
    ]},
    {"binder": "Ac-LADLIFTDSKLYAPLE-NH2", "note": "[TPTE2_I104A peptide 92-107]", "values": [
      {"measurement": "IC50", "setting": "[7]", "value": 55, "unit": "µM"}
    ]},
    {"binder": "Ac-LADLIYTDSKLYIPLE-NH2", "note": "[TPTE2_F97Y peptide 92-107]", "values": [
      {"measurement": "IC50", "setting": "[7]", "value": 440, "unit": "µM"}
    ]},
    {"binder": "Ac-LADLIFTDSKLWIPLE-NH2", "note": "[TPTE2_Y103W peptide 92-107]", "values": [
      {"measurement": "IC50", "setting": "[7]", "value": 66, "unit": "µM"}
    ]},
    {"binder": "Ac-LADLIFTDSALYIPLE-NH2", "note": "[TPTE2_K101A peptide 92-107]", "values": [
      {"measurement": "IC50", "setting": "[7]", "value": 45, "unit": "µM"},
      {"measurement": "Kd", "setting": "[7]", "value": 15, "unit": "µM"}
    ]},
    {"binder": "Ac-LADLIWTDSKLYIPLE-NH2", "note": "[TPTE2_F97W peptide 92-107]", "values": [
      {"measurement": "IC50", "setting": "[7]", "value": 0.4, "unit": "µM"}
    ]},
    {"binder": "Ac-LADLIFTDNKLYIPLE-NH2", "note": "[TPTE2_S100N peptide 92-107]", "values": [
      {"measurement": "IC50", "setting": "[7]", "value": 5.2, "unit": "µM"}
    ]},
    {"binder": "STYLHPLSELLGIPLD", "note": "[MBOAT1 wt peptide 17-32]", "values": [
      {"measurement": "IC50", "setting": "[5]", "value": 175, "unit": "µM"}
    ]},
    {"binder": "APRITFGGPSDSTGS", "note": "[wildtype SARS‐CoV‐2 N_(12–26) peptide]", "values": [
      {"measurement": "Kd", "setting": "[8]", "value": 2.3, "unit": "µM"}
    ]}
  ]
}
